Results: the supplement of paper PMC9170038

System: K4 kissing-loop RNA reporter
Experiment: apparent KD of K4 kissing-loop reporter; higher = weaker reporter binding
Conditions: Eterna round: R107
Description: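 RNA-MaP round R107: designed RNA switches with theophylline, tryptophan, arginine or FMN aptamers are transcribed on-chip within common flanks. They are titrated with a labelled K4 kissing-loop RNA reporter in RNA-MaP buffer (100 mM Tris pH 7.5, 80 mM KCl, 4 mM MgCl2), without ligand or with the indicated ligand. Median apparent KD per design.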

[1] = input ligand: theophylline 20 uM
[2] = input ligand: tryptophan 2.4 mM
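Also: bound reporter read as fluorescence of individual clusters on recovered sequencing chips by microscopy, with normalized cluster intensities fitted with a binding model.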

Sequence	apparent KD of K4 kissing-loop reporter (input ligand: FMN 200 uM) [nM]	apparent KD of K4 kissing-loop reporter (input ligand: arginine 13.2 mM) [nM]	apparent KD of K4 kissing-loop reporter (input ligand: none) [nM]	apparent KD of K4 kissing-loop reporter [1] [nM]	apparent KD of K4 kissing-loop reporter [2] [nM]
CAGCGGAGUGAUGUUCUGCUUACUGCGGAUACCAGCUUCGCCAGAGGCCCUUGGCAGCCGGGCGGCUCAGUGAUGUUGGGUUGCU [Same State Theophylline A GF 15]	536	559	876	920	664
CAGUUCCGUAGUGAUGUUACGAUCUCUGAUACCAGACAACUCUAAGUCCCUUGGCAGCAGUCAUUUUGCUUAAUAUUUACUCAAA [#08 K4 Theophylline A Exclusion]	126	139	136	170	116
CAUACGCAUGGAGGAUAUGAGAAUUCUCAUGUCAUUUAAUAUUCUCAGUGAUGUUGAGGAUGUGGCUCAGAAGGCCAUGUGUAUG [Ex FMN B 21]	205	325	423	366	379
CAUUCUAUAUGCAGUGAUGUUGCAACUGAUACCAGUAUCGAAAGAUACCCUUGGCAGCGGAAAACCGCUACGUAAUUUAAGAAUG [Ex Theophylline A K4 22]	375	445	489	523	327
CCACAAUAUGGAAGGAGCGCCAGUGAUGUUGGUGCUUGCUUUAGGUAAGACCGGCCUAUUUGGCAGGUAGGUCGCCAUAUUCAAC [Ageat]	103	89.5	97.7	89	97.2
CCAGAAUGAUGAGGAUGAUAAAUUACUGAAGGAGCGCAUAUAGUUGCAGGUAGGUCGCGGUGAAUAAGUAUAGUGAUGUUAUACC [SSArgA.Ab]	595	327	314	322	341
CCAGGAUGAUGAGGAUGAUAAAUUACUGAAGGAGCGCAUAUAGUUGCAGGUAGGUCGCGGUGAAUAAGUAUAGUGAUGUUAUACC [SSArgA.Aa]	379	263	309	360	301
CCCGCGGCGGGAAACCGUCGCGGGAAGGAAGGAGCGGCGAAGAAGCCAGGUAGGUCGCCUAUUGACAGUGAUGUUGUUAUAUAGA [#11]	226	263	160	292	179
CCCGUUGCGGCGGCCGCCACUGACUUAUUGAUUAGGUUGCCAGUGAUGUUGGCCACCGGUCAAUACAGGACCGGGCCAUAGCGGG [Ceisreatte]	157	124	128	134	99.1
CCCUAUAUAUGCAGUGAUGUUGCAACUGAUACCAGUAUCGAAAGAUACCCUUGGCAGCGGAAAACCGCUACGUAAUUUAAUAGGG [Ex Theophylline A K4 21]	384	422	419	461	265
CCGGCCCAGCCGGAUACCAGUGCGCCGCAGGGAACGGCGGGCCCAGAGUGAUGUUCGGGACACCCUUGGCAGCCGCCUGGGUCGC [#2 Same State - Theophylline B Attempt #27 (HarryS)]	234	197	309	314	297
CCGGGCGGCUGAAGGAGCGGGCGGGCCCGAGUGAUGUUCGGGUGGGCCGUGAGGCCCGGAGCCCAGGUAGGUCGCGGUUCCGUCC [#2 Same State - Arginine B Attempt #18 (HarryS)]	201	139	167	196	140
CCUCACGUAGGACUAGUGAUGUUAGACUACCGAGGACCGGUACGGCCGCCACUCGUCGUACAAGAUAACCAUCUGCCAGUAUACA	122	103	117	107	168
CCUUUAGGCUCGGCCGCCACUCCAGUGAUGUUGGAGGUGCGUACAGAGCUAGAAAGCGUUAUCAGGAGGACCGGGAGUUUUAACG [Leorte]	98.3	107	103	101	110
CGACUAGUCUUGCAACCCUAGUCGAUAUGCUAGGAUAUCAGGAAACUGAGAAGGAGUUUACUUGCAGUGAUGUUGCAAGAAUAAU [KL-SSFMN-A10]	135	153	133	172	129
CGAGCUUCCUGGGAUACCAGUCGGAGUCUCAGAGCUCGGAGUGAUGUUCUGGGAUGUUUCGGCCCUUGGCAGCUCUGGGACUCCU [#2 Exclusion - Theophylline B Attempt #20 (HarryS)]	1000	576	767	883	797
